Results taken from patent US20150376269A1 (Regeneron, published 2015).
Changes are numbered by the printed parent chain. Numbers in names are those of the source.

T1: serum resistance-associated protein (SRA) from Trypanosoma brucei rhodesiense, recombinant SRA (SEQ ID NO: … (Trypanosoma brucei rhodesiense, UniProt O96637 31-274))
T1 construct: also called SRA protein
T1 sequence: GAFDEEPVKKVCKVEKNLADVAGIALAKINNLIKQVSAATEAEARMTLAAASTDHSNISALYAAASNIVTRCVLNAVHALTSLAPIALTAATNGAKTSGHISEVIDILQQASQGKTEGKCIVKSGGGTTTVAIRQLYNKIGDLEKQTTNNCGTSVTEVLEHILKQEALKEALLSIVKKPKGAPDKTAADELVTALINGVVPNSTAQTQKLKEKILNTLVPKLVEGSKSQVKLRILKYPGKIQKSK

T2: SRA.mmh
T2 construct: also called SRA.mmh (CHO)
T2 antigen: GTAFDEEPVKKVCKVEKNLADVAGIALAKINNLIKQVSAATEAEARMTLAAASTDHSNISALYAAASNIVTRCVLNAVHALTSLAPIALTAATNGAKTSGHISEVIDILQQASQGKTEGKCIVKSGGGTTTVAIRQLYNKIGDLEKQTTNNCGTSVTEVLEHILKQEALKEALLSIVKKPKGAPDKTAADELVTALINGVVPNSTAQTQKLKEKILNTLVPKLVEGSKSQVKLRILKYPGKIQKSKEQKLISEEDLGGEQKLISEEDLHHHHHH

B1: H1H10059P (antibody, V domains shown)
VH: QVQLVQSGAEVKKPGASVKVSCKAAGFTFIGYYIHWVRQAPGQGLEWMGWINSNSGDKDSAPKFQDRVTMTRDTSISTAYMELSRLRSDDTAVYFCAREGYNFGHFDYWGQGTLVTVSS
VL: DIVMTQTPLSSPVTLGQPASISCRSSQSLVHSDGNTYLSWLQQRPGQPPRLLIYKISNRLSGVPDRFSGSGAGTDFTLKISRVEGEDVGVYYCMQGTQFPRTFGQGTKVEIK
notes: Fully human antibody with human IgG1 Fc (prefix H1H)
B2: H1H10026P (antibody, V domains shown)
VH: QVQLVESGGGVVQPGRSLRLSCEASGFTFSIYGMHWVRQAPGKGLEWVAVISYDGTNRYYADSVKGRFTISRDNSKNTLYLQMNSLRAEDTAVYYCAKVNIWNFLFDYWGQGTLVTVSS
VL: EIVLTQSPGTLSLSPGERATLSCRASQSVSGNYLAWYQQKPGQAPRLLIYGPSSRATGIPDRFSGSGSGTDFTLTISRLEPEDFAVYYCQQYGTSLTFGGGTKVEIK
notes: as for B1
B3: H1H10027P (antibody, V domains shown)
VH: EVQLVESGGALVQPGRSLTLSCAASGFTFDDYTMHWVRQTPGKGLEWVSGILWNSDNLVYADSVKGRFTISRDNAKNSLYLQMNSLRVEDTALYYCTKEIDYLTLGGNAFDVWGQGTMVTVSS
VL: DIQMTQSPSTLSASVGDRITITCRASQNINYWLAWYQQKPGKAPKLLIYKASSLAGGVPSRFSGSGSGTDFTLTINSLQPDDFATYYCQKYNTYSLNFGGGTKVEIK
notes: as for B1
B4: H1H10058P (antibody, V domains shown)
VH: EVQLVESGGGLVQPGGSLRLSCAASGFTFNDFFMSWVRQAPGKGLEWVANLNQDGSERHYVDSVKGRFTISRDNAKNSLSLQMNSLRVEDTAVYYCAREGGDSWGQGTLVTVSS
VL: DIVMTQSPDSLAVSLGERVTINCKSSQSILYSANNKDYLAWFHQKPGQPPKLLIYWASIRESGVPDRISGSGSGTDFTLTISSLQAEDVAVYYCQQYYLFPPTFGQGTKVEIK
notes: as for B1
B5: H1H10069P (antibody, V domains shown)
VH: QVQLQESGPGLVKPSETLSLTCSVSGGSFTNYYWSWIRQPPGKGLEWIGSVFYSGTTNYNPSLQSRVTLSIETSKNQFSLRLNSVTAADTAVYYCARDQGAAALDYWGQGTLVTVSS
VL: DIQMTQSPSTLSASVGDRLTITCRASQSINNWLAWYQQKPGKAPKLLIYKASNLESGVPSRFSGSGSGTEFTLTISNLQPDDFATYYCQQYNSFFLTFGGGTKVEIK
notes: as for B1
B6: H2aM10200N (antibody, V domains shown)
VH: QVQLVQSGAEVKKPGSSVKVSCKASGGTFSSYAISWVRQAPGQGLEWMGGIIPFFGTATYAQKFQGRVTITTDESTRTVYMELSSLRYEDTAVYYCARWYSGYGGDFDYWGQGTLVTVSS
VL: AIQMTQSPSSLSASVGDRVTITCRASQGIRNDLGWFQQKPGKAPKLLIYAASSLQSGVPSRFSGSGSGTDFTLSISSLQPEDFATYYCLQDYSYPRTFGQGTKVEIK
notes: Hybridoma-derived chimeric antibody, human variable domains and mouse constant domains (mouse Fc, prefix H2aM); also called H2M10200N
B7: H2aM10285N (antibody, V domains shown)
VH: QVQLVQSGAEVKKPGSSVKVSCKASGGTFTNFAISWVRQAPGLGLEWMGGIIPFVGTATYEQKFQGRVSITADESTRTAYMELSSLRYDDTAVYYCARWFSGSGGDFDYWGQGTLVTVSS
VL: B6 VL with R30G, F36Y, K39R, P40R, K42T, S74T, Y92F, S93T, Y94F
notes: Chimeric antibody, human variable domains and mouse constant domains (mouse Fc, prefix H2aM); also called H2M10285N
B8: H2aM10204N (antibody, V domains shown)
VH: QVHLVQSGAEVKKPGSSVKVSCKASGGTFSNYAISWVRQAPGQGLEWMGGIIPFSGSATYAQNFQGRITITTDESTRTAYMELNGLRSEDTAVYYCARWFSGYGGDFDYWGQGTLVTVSS
VL: B6 VL with G28D, R30K, F36Y, S53T, D70H, S74T, I75L, Y87F, S93T, Y94F
notes: Chimeric antibody, human variable domains and mouse constant domains (mouse Fc, prefix H2aM); also called H2M10204N
B9: H1H10067P (antibody, V domains shown)
VH: QVQLQESGPGLVKPSQTLSLTCIVSGGSISSGDYYWNWIRQHPGKGLEWIGDIYHSGDTYYNPSLKSRVTISLDTSKNQFSLKLSSLTAADTAVYYCARDRIVATGGGMDVWGQGTTVTVSS
VL: DIQMTQSPSTLSASVGDRVTITCRASQSISSWLAWYQRKPGKAPNLLIYRSSSLESGVPSRFSGSGSGTEFTLTISSLQADDFVIYYCQQYNSYPYTFGQGTKLEIK
notes: as for B1

How the values were obtained:
[1] = target: T1, serum resistance-associated protein …; assay: SPR, 25C, t1/2 pH 7.4 over pH 4.5
Experimental: (§1) Equilibrium dissociation constants (KD) values for SRA binding to selected purified anti-SRA monoclonal antibodies were determined using a real-time surface plasmon resonance biosensor assay on a Biacore T200 instrument. […] SRA binding to the captured monoclonal antibodies was monitored for 4 min while the dissociation of mAb bound SRA was monitored for 7 min. Two different assays formats were adopted to characterize kinetics of SRA binding—(i) regular kinetics and (ii) pH4.5 chase. Regular kinetics experiments were performed using pH7.4 buffer as the running buffer and both the association and dissociation was performed in pH7.4. For the chase format, association and dissociation were performed in pH7.4 buffer and pH4.5 buffer respectively.
(§2) Kinetic association (kₐ) and dissociation (kd) rate constants were determined by processing and fitting the data to a 1:1 binding model using Scrubber 2.0c curve fitting software. Only the dissociation rate (kd) was calculated for the pH4.5 chase experiment. Binding dissociation equilibrium constants (KD) and dissociative half-lives (t½) were calculated from the kinetic rate constants as:

SRA.mmh [2] = target: T2, SRA.mmh; assay: Octet, mAb-2 at 50 ug/mL on captured SRA.mmh after negative control α-PRLR H1H6800P as mAb-1 (row 32 (-))
[3] = target: T1, serum resistance-associated protein …; assay: SPR, mAb captured, 50 nM SRA, pH 4.5, 25C
[4] = target: T1, serum resistance-associated protein …; assay: SPR, mAb captured, 25C, assoc. pH 7.4, dissoc. pH 4.5
Experimental: as §1, §2

[5] = target: T1, serum resistance-associated protein …; assay: SPR, mAb captured, 25C, pH 7.4
Experimental: as §1, §2

SRA.mmh [6] = target: T2, SRA.mmh; assay: Octet, SRA.mmh captured on anti-Penta-His tips, mAb-1 at 50 ug/mL for 5 min, 25 C, pH 7.4
[7] = target: T1, serum resistance-associated protein …; assay: SPR, mAb captured, pH 4.5, 25C; competitor biotin-mutant apoL1 peptide
[8] = target: T1, serum resistance-associated protein …; assay: SPR, mAb captured, pH 4.5, 25C; competitor biotin-apoL1 peptide

Binder | t ½ ratio pH 7.4/pH 4.5 [1] | Binding of mAb-2 to SRA Pre-complexed with mAb-1 (SRA.mmh [2]) | 50 nM SRA binding (RU) [3] [RU] | t ½ [4] [h] | Kd [5] [nM] | kon [5] [M⁻¹ s⁻¹] | t ½ [5] [h] | 50 ug/mL mAb 1 Bound (nm) (SRA.mmh [6]) | 50 nM SRA + 5 uM mutant apoL1 peptide binding (RU) [7] [RU] | % Blocking, Mutant apoL1 peptide [7] [%] | 50 nM SRA + 5 uM apoL1 peptide binding (RU) [8] [RU] | % Blocking, apoL1 peptide [8] [%]
B1 | ≥ 6 | 1.17 | 73 | 0.617 | ≤ 0.0318 | 1.57e+06 | ≥ 3.85 | 1.24 | 65 | 11 | -9 | 100
B2 | ≥ 2 | 1.64 | 104 | 1.75 | ≤ 0.0814 | 614000 | ≥ 3.85 | 1.45 | 106 | -2 | 84 | 19
B3 | ≥ 3 | 1.55 | 95 | 1.4 | ≤ 0.0376 | 1.33e+06 | ≥ 3.85 | 1.5 | 92 | 4 | 118 | -24
B4 | ≥ 1 | 1.27 | 59 | 4.05 | ≤ 0.0786 | 636000 | ≥ 3.85 | 1.44 | 56 | 5 | 57 | 4
B5 | ≥ 2 | 1.37 | 54 | 1.87 | ≤ 0.0785 | 636000 | ≥ 3.85 | 1.61 | 52 | 5 | 62 | -13
B6 | 77 | 1.28 | 159 | 0.0333 | 0.0996 | 844000 | 2.28 | 1.59 | 150 | 5 | -2 | 100
B7 | 124 | 1.24 | 120 | 0.0117 | 0.138 | 1.03e+06 | 1.37 | 1.53 | 111 | 8 | 8 | 94
B8 | ≥ 95 | 1.08 | 140 | 0.0333 | ≤ 0.0899 | 556000 | ≥ 3.85 | 1.46 | 128 | 9 | 3 | 98
B9 | ≥ 4 | 1.41 | 85 | 0.933 | ≤ 0.0557 | 897000 | ≥ 3.85 | 1.52 | 82 | 4 | 98 | -16
